# Reference: patent US20110028697
# T1: MazE (E. coli), MazE from Escherichia coli with His-Tag and Myc-Tag at the N-terminal end
# T1 chain: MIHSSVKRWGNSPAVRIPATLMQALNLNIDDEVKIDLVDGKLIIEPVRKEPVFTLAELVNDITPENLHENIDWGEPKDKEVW
# B1: MazF (E. coli), N-terminally His-Tagged MazF from Escherichia coli (protein)
# chain: MVSRYVPDMGDLIWVDFDPTKGSEQAGHRPAVVLSPFMYNNKTGMCLCVPCTTQSKGYPFEVVLSGQERDGVALADQVKSIAWRARGATKKGTVAPEELQLIKAKINVLIG
# Target: T1, MazE (E. coli), MazE from Escherichia …
protein,measurement,value
B1,"degradation of the substrate MazG30 by the ribonuclease activity of MazF (E. coli), gel electrophoresis","When MazE and MazF were added to the substrate MazG30, degradation of the substrate MazG30 was inhibited and the band at the position corresponding to a 14mer polypeptide was decreased"
